Laboratory results: patent publication US20210188968A1 (AB2 BIO, published 2021)

T1: recombinant human interleukin-18 (human, UniProt Q14116 37-193)
T1 construct: Commercially available recombinant human IL-18; also called IL-18; free IL-18
T1 sequence (looked up): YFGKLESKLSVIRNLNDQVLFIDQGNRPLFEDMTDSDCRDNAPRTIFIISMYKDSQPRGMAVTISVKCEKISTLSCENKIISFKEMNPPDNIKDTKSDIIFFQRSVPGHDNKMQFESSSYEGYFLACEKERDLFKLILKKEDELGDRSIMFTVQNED

T2: IL-18/IL-18BP complex (human, UniProt Q14116 37-193)
T2 construct: Non-covalent 1:1 complex; In the third screening step IL-18BP was linked to Luminex beads and then complexed to IL-18; also called IL-18 previously complexed to IL-18BP; complex IL-18-IL-18BP
T2 sequence 1: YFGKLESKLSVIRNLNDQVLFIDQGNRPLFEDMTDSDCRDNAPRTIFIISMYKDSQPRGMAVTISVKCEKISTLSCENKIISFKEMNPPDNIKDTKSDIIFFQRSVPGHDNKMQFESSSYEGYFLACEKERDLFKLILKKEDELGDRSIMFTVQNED
T2 sequence 2: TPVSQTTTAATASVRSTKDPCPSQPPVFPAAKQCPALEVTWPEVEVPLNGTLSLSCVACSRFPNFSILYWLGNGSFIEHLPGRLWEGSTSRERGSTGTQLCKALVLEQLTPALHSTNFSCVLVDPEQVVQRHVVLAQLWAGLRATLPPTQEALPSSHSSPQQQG


Tests used:
[1] = target: T1, recombinant human interleukin-18; test: Luminex, antibody on IL-18 beads
Experimental: Following immunization, B cells were isolated from spleen and hybridized following standard hybridoma technology. […] The screening was performed in 3 sequential and selective steps: [1253] First step. […] [1254] Second step. […] For this, monoclonal antibodies were bound to Luminex beads carrying IL-18. […] [1255] Third step.

[2] = target: T2, IL-18/IL-18BP complex; test: Luminex, antibody on IL-18 presented by IL-18BP-linked beads
[3] = target: T2, IL-18/IL-18BP complex; test: Luminex, third screening against first screening
[4] = target: T1, recombinant human interleukin-18; test: titration of antibody with a defined IL-18 molarity; KD from EC50 by Law of Mass Action
Experimental: (§1) The respective KD values of each monoclonal antibody was calculated following titration of the antibodies with a defined IL-18 molarity and derived from the obtained EC₅₀ values with the Law of Mass Action (see above).

[5] = target: T1, recombinant human interleukin-18; test: Luminex, biotinylated IL-18BP (competitor) on IL-18 beads pre-complexed with the antibody
[6] = target: T1, recombinant human interleukin-18; test: titration of antibody with a defined IL-18 molarity; KD from EC50 by Law of Mass Action; mean
Experimental: as §1

[7] = target: T1, recombinant human interleukin-18; test: free IL-18 ELISA (IL-18BP-coated plate); 400 pg/mL IL-18 in PBS/5% BSA spiked with 0-10000 pg/mL IL-18BP
Experimental: A description of the purification protocol is provided in section 6.6.2. Plates are incubated for a period of time at 4° C. and then stabilized with a blocking buffer containing bovine serum albumin or other appropriate blocking agents. Once the reaction is finished, microplates are sealed and stored at 4° C. until used for detection of free IL-18. Microplates can also be dried in a stabilizing solution allowing storage at room temperature and then be reconstituted by hydration when needed for assay.

[8] = target: T1, recombinant human interleukin-18; test: competition in solution: 400 pg/ml IL-18 spiked with rising IL-18BP; remaining free IL-18 detected by ELISA with plate-bound IL-18BP as capture
[9] = target: T1, recombinant human interleukin-18; test: after clone dilution; method not detailed

Binder | Fluorescence intensity [1] [fluorescence intensity] | Fluorescence intensity [2] [fluorescence intensity] | fold inhibition of binding on IL-18 complexed to IL-18BP against binding on IL-18 [3] [fold] | Kd [4] [pM] | Fluorescence intensity of IL-18BP binding [5] [fluorescence intensity] | Kd [6] [pM] | molar ratio IL-18BP/IL-18 at which free IL-18 is near background [7] [fold] | IC50 (read off the curve) [8] [pg/mL] | binding result [9]
Antibody 132H4 (antibody, V domains shown, Mouse hybridoma monoclonal antibody) VH: EVKLVESGGGLVKPGGSLKLSCAASGFTFSNYAMSWVRQNPAKRLEWVATISSGGANIYYPDSVKGRFIISRDNARNTLYLQMSSLRSEDTAMYYCARGDYFNHFWFAYWGQGTLVTVSA VL: DVLMTQTPLSLPVSLGDQASISCRSSQSIVHSNGNTYLEWYLQKPGQSPKFLIYKVSNRFSGVPDRFSGSGSGTDFTLKINRVEAEDLGIYYCFQGSHVPWTFGGGTKLEIK | 23800 | 28 | > 500 | 5 | 1490 | 5 | – | – | –
recombinant human IL-18 Binding Protein (r-hIL-18BP), isoform a (other, It was biotinylated in the second screening step and linked to Luminex beads in the third; also called human IL-18BP; IL-18BPa) TPVSQTTTAATASVRSTKDPCPSQPPVFPAAKQCPALEVTWPEVEVPLNGTLSLSCVACSRFPNFSILYWLGNGSFIEHLPGRLWEGSTSRERGSTGTQLCKALVLEQLTPALHSTNFSCVLVDPEQVVQRHVVLAQLWAGLRATLPPTQEALPSSHSSPQQQG | – | – | – | – | – | – | ~15 | ~2000 | –
Antibody 107C6 (antibody, V domains shown, Mouse hybridoma monoclonal antibody; also called clone #107C6) VH: QIQLVQSGPELKKPGETVKLSCRASGYTFTNYGMNWVKQAPGKGLKWMGWINTYSGVPTYADDFKGQFAFSLETSAATAFLQINNLKDEDTATYFCAREGYSTTRSMDYWGQGTSVTVSS VL: DIVMSQSPSSLAVSAGEKVTMSCKSSQSLLDSRTRKNYLVWYQQKPGQSPKLLIYWASTRGSGVPDRFTGSGSGTDFTLTISSVQAEDLAVYYCKQSYNLRTFGGGTKLEIK | 26200 | 33 | > 500 | < 2 | 1390 | < 2 | – | – | –
Antibody 108F8 (antibody, V domains shown, Mouse hybridoma monoclonal antibody) VH: QIQLVQSGPDSKKPGETVKLSCRASGYTFTNYGMNWVKQAPGKGLKWMGWINTYSGVPTYADDFKGQFAFSLETSAATAFLQINNLKDEDTATYFCAREGYSTTRSMDYWGQGTSVTVSS VL: DIVMSQSPSSLAVSAGEKVTMSCKSSQSLLDSRTRKNYLVWYQQKPGQSPKLLIYWASTRGSGVPDRFTGSGSGTDFTLTISSVQAEDLAVYYCKQSYNLRTFGGGTKLEIK | 25100 | 45 | > 500 | < 2 | 1290 | < 2 | – | – | –
Antibody 109A6 (antibody, V domains shown, Mouse hybridoma monoclonal antibody) VH: EVQLQQSGAELVKPGASVKLSCTASGFKIKDTYIHWVIQRPAQGLEWIGRIDPANGNTIYGSKFQGKATLTADTSSNTAYIHLSSLTSGDSAVYYCAGYVWFAYWGQGTLVTVSA VL: DVVMTQVPLSLPVSLGDQASISCRSSQRLVHSNGNTYLHWFLQKPGQSPKLLIYTVSNRFSGVPDRFSGSGSGTDFTLKISRVEAEDLGVYFCSQSTLVPWTFGGGTKLEIK | 25800 | 33 | > 500 | 10 | 913 | 10 | – | – | –
Antibody 131B4-2 (antibody, V domains shown, Mouse monoclonal antibody obtained on clone dilution) VH: EVQLQQSGAELVKPGASVKLSCTASGFKIKDTYIHWLKQRPEQGLEWIGRIDPANGNTIYGSKFQGKATITADTSSNTAYIQLSSLTSGDTAVYFCAGYVWFAYWGQGTLVTVSA VL: DAVLTQTPLSLPVSLGDQASISCTSSQSLVHSNGNTYLHWYLQKPGQSPKLLIYKVSDRFSGVPDRFSGSGSGTDFTLMITRVEAEDLGVYFCSQSSLVPWTFGGGTKLEVK | – | – | – | – | – | – | – | – | binds
